The text below walks through data of patent US5898069A, “Phosphate assay” (Medical Research Council, priority 1993, dated 1999).

For orientation: Km means the concentration of substrate that gives half-maximal velocity.

Where “and” joins values, the source holds several entries; their conditions need not be identical. Equal entries are not always repeated. Where two headings read alike, the source gives them in different places.

The target of data set [1] is T1, CPM-PBP (Escherichia coli, UniProt P0AG82, A222C).
T1 construct: A197 is located at position 197 numbering from the N-terminus of the mature PBP; made in house; host or cells: E. coli strain ANCC75, plasmid pSN5182/N, periplasm
T1 sequence (P0AG82 26-346 A222C): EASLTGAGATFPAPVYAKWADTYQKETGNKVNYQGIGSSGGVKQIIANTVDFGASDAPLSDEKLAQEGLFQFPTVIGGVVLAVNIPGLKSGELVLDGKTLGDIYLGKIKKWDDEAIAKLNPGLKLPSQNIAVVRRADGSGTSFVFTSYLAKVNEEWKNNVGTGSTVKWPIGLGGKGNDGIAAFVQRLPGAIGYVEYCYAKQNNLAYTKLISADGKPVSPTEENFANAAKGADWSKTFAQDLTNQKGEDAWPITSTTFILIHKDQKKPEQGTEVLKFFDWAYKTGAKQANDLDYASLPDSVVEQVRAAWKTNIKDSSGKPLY
Type of data set: binding, E. coli. The method, then:
Analysis of the effects of Pi analogues and solution composition was performed as for MDCC-PBP.

Data set [2] addresses T2, MDCC-PBP (Escherichia coli, UniProt P0AG82, A222C).
T2 construct: A197 is located at position 197 numbering from the N-terminus of the mature PBP; made in house; host or cells: E. coli strain ANCC75, plasmid pSN5182/N, periplasm
The class given is binding, E. coli. The method, then:
The Pi dependent fluorescence change was measured for a variety of conditions at a single concentration of Pi (Table 2).
(§1) The solutions contained 2 μM MDCCPBP (except for [b] 10 μM and [c]
The fluorescence change was measured at 465 nm with excitation at
[a] The solution was preincubated with the Pi mop.

In data set [3] the test system is purine nucleoside phosphorylase. Description: Phosphorolysis of 7-methyl guanosine by purine nucleoside phosphorylase (Pi mop), absorbance change at 260 nm. Type of data set: biochemical, bacterial. To be noted: pH 8.0, 20 mM Tris.HCl, 1 μM MgCl2, 30° C.
Data set [4] deals with T2, MDCC-PBP. In words: Titration of arsenate in a solution of MDCC-PBP (fluorescence change). To be noted: read-out: dissociation constant. The class given is binding, E. coli. From the text: (§2) Because very small levels of Pi contamination can affect the observed change on adding Pi and because of variability in the protein activity, the maximum percent increase of fluorescence varies from 400-500%0 Although PBP is very specific for Pi (Luecke & Quiocho, 1990), it was to be used as a probe in the presence of other phosphate species, such as esters or purine nucleotides and so it was important to know at what levels these might interfere with Pi measurements. Several Pi analogues were also tested (Table 2) and only arsenate and vanadate produced significant increases. For a titration of arsenate in a solution of MDCC-PBP, the fluorescence change was used to obtain a dissociation constant of 3 μM. In all cases except arsenate, when subsequently Pi was added, the full fluorescent change was observed. The Pi dependent fluorescence change was measured for a variety of conditions at a single concentration of Pi (Table 2). The change is only slightly affected by pH (7-8) or ionic strength.

Data set [5] in a line: Pi dependent fluorescence change of labelled PBP in various solution compositions. The class given is binding. To be noted: for % fluorescence increase: 100 μM Pi added. Here is the method: 3.2 μM MDCC-PBP was in 10 mM PIPES, 1 mM MgCl2 (pH 7.0) at 22° C. Pi was added to 50 μM;
as §2, §1
3.2 μM) in 20 mM PIPES (pH 7.0) except where indicated. The solutions
in B had 100 μM Pi added to produce the indicated fluorescence
change. […]

Data set [6] is described as follows: Fluorescence titration of Pi to labelled PBP to obtain the dissociation constant. To be noted: for Kd: approximate. The class given is binding. The method, then:
The solution at 20° C. contained […] MDCC-PBP, 1 mM MgCl2, 10 mM PIPES pH 7.0. Aliquots of Pi were added and the fluorescence emission was measured at 465 nm with excitation at 425 nm. The data was corrected for the small amount of dilution;
The solution at 25° C. in 10 mM PIPES, pH 7.0, 1 mM MgCl2 contained 0.28 μM MDCC-PBP. Aliquots of Pi were added and the fluorescence emission was measured as in FIG. 3.
The fluorescence titrations of Pi with CPM-PBP (and MDCC-PBP) were fitted to the following equations using Enzfitter software:
Ratio of fluorescence at a given [Pi ] to that at zero Pi =(Q[Ep ]+[E]-[Ep ])/[E] where
[E ]P=([P]+[E]+K-√(([P]+[E]+K)^2 -4[P][E]))/2
[E]=concentration of CPM-PBP
Q=ratio of fluorescence for CPM-PBP.Pi to that for the unliganded CPM-PBP
The product was characterized in several ways. […] The dissociation constant was determined by titrating Pi at low [MDCC-PBP] and measuring fluorescence (FIG. 4). […] Because Pi binding is very tight, these dissociation constants can be considered only approximate: the fluorescence titration could not be done at sufficiently low concentrations to obtain accurate values of Kd.

The nature of data set [7]: Stopped-flow kinetics of Pi binding to labelled PBP and its release. Here is the method:
A. 0.1 μM MDCC-PBP (mixing chamber concentration) in 10 mM PIPES, pH 7.0 was rapidly mixed at 21° C. with different concentrations of Pi in this buffer in a stopped flow apparatus, while fluorescence emission was monitored using a 455 nm cut-off filter, with excitation at 436 nm using a mercury lamp. The curve show a time course with 0.25 μM Pi. […] The best-fit single exponential (65.3 s^-1) is shown by the dashed line, almost completely hidden by the experimental curve.
B. The release kinetics were measured by rapidly mixing 0.125 μM Pi, 0.25 μM MDCC-PBP with 10 μM wild-type PBP (mixing chamber concentrations) at 22° C. Other conditions were as above The best-fit single exponential (21.4 s^-1) is shown by the dashed line, almost completely hidden by the experimental curve;
In order to use the probe to measure Pi release from ATPases and GTPases in real time it was important to know the kinetics of Pi interaction with the labeled protein. Because of the fast rates only part of the exponential is observed: a significant proportion of the reaction occurs during the dead time of the instrument (i.e. the time taken for the solution to flow between mixing and the observation chamber).
The dissociation rate of the MDCC-PBP.Pi complex was measured directly in the stopped flow apparatus by rapid mixing of this complex with excess wild-type PBP. Pi is released from the fluorescent complex and binds to the wild-type protein with a rate constant limited by the rate of release (FIG. 6B). The observed rate was 21.3±0.1 (S.E.M.) s^-1 (22° C., […], pH 7.0) for wild-type concentrations from 1.25 to 10 μM, with 0.25 μM MDCC-PBP and 0.125 μM Pi. Because this rate is constant over a range of wild-type concentrations and because the rate is much slower than that expected for Pi binding, assuming the wild-type PBP has similar rate constant to the MDCC-PBP, the observed rate constant probably represents Pi release.

The nature of data set [8]: Storage stability of labelled protein. The class given is physicochemical. The text has this: The Pi -sensitive labeled mutant, MDCC-PBP was purified further and tested as described in the Experimental Procedures to show it was a singly-labeled protein with no unlabeled protein or unbound fluorophore. The further purification is important as the unlabeled protein will also bind Pi. Unbound fluorophore would reduce the percentage fluorescence change by increasing the background and it might also slowly react with or bind to other components in the experimental system. The ion exchange chromatography separated MDCC-PBP completely from unlabeled PBP and unbound fluorophore. Thus the final labeled protein has a ratio of absorbance maxima, 280/430 nm of 1.8. The fluorescence excitation maximum is 425 nm and the emission maximum is 474 nm and the fluorescence change with excess Pi at pH 7.0 for the conditions in FIG. 2 is 5.3-fold with a shift of maximum emission to 464 nm. The labeled protein could be stored at […] and was stable on ice for at least 5 days.

Data set [9] is described as follows: Competition titration of MDCC-PBP.Pi with wild-type PBP. Type of data set: binding.

T2 sequence (P0AG82 26-346 A222C): as above

`O=P(O)(O)O` [Pi, inorganic phosphate]: the “% fluorescence increase” value in data set [1] (pH 8) amounted to 65%; in data set [2] (pH 7) it was 430%. Moreover, the Km in data set [3] worked out at 34 µM.
As for `O=[As]([O-])([O-])O.[Na+].[Na+]` [Sodium arsenate], the “% fluorescence increase” value is reported as 25% in data set [1] (addition 100 μM, 6 μM CPM-PBP, 10 mM Tris.HCl pH 8.0) and 313% in data set [2] (addition 100 μM, 2 μM MDCC-PBP, 20 mM PIPES pH 7.0). In data set [4], the Kd was 3000 nM.

B1: MDCC-PBP (conjugate, UniProt P0AG82 26-346, looked up)
Phosphate-binding protein PstS: EASLTGAGATFPAPVYAKWADTYQKETGNKVNYQGIGSSGGVKQIIANTVDFGASDAPLSDEKLAQEGLFQFPTVIGGVVLAVNIPGLKSGELVLDGKTLGDIYLGKIKKWDDEAIAKLNPGLKLPSQNIAVVRRADGSGTSFVFTSYLAKVNEEWKNNVGTGSTVKWPIGLGGKGNDGIAAFVQRLPGAIGYVEYAYAKQNNLAYTKLISADGKPVSPTEENFANAAKGADWSKTFAQDLTNQKGEDAWPITSTTFILIHKDQKKPEQGTEVLKFFDWAYKTGAKQANDLDYASLPDSVVEQVRAAWKTNIKDSSGKPLY
modifications: MDCC fluorophore label
Take B1: the “% fluorescence increase” value in [5] (10 mM PIPES (pH 7.0), 1M NaCl, 3.2 μM MDCC-PBP) came out at 350%; in [5] (10 mM PIPES (pH 7.0), 2 μM MDCC-PBP) it was 430%; in [5] (10 mM Tris-HCl (pH 8.0), 2 μM MDCC-PBP) it was 405%. In addition, the “fluorescence change with excess Pi” value in data set [5] (pH 7.0, FIG. 2: 3.2 μM MDCC-PBP, 10 mM PIPES, 1 mM MgCl2, 22° C., Pi 50 μM) was 5.3 fold. Also, in data set [5] (varies with Pi contamination and protein activity), the “maximum percent increase of fluorescence” value is on record as 400-500%. Besides, the “protein active (from linear fluorescence response to Pi)” value in [6] (FIG. 3, 20° C., 1 mM MgCl2, 10 mM PIPES pH 7.0) is 75-80%. Besides, the maximum fluorescence enhancement in [6] (FIG. 4, 25° C., 10 mM PIPES pH 7.0, 1 mM MgCl2, 0.28 μM MDCC-PBP) was 415%. Also, the Kd in data set [6] (pH7.0) was 30 nM; in data set [6] (pH 8.0) it was 80 nM. For the same molecule, in data set [7] (0.1 μM MDCC-PBP, 0.25 μM Pi, 10 mM PIPES pH 7.0, 21° C.), the “Pi binding, best-fit single exponential” value was determined as 65.3 s⁻¹. In addition, the “dissociation (Pi release) rate of labelled PBP.Pi complex” value in data set [7] (22° C., PIPES pH 7.0, 0.25 μM MDCC-PBP, 0.125 μM Pi mixed with excess wild-type PBP (1.25 to 10 μM)) is 21.3 ± 0.1 s⁻¹ and 21.4 s⁻¹. Moreover, the “k+ (Pi binding rate constant, one step binding model)” value in data set [7] (pH 7.0, [Pi]<5μM) came out at 1.36e+08 M⁻¹ s⁻¹. Also, in data set [7] (pH 7.0, [Pi]<5μM, prone to error), the “k- (from fit of observed binding rates)” value was determined as 43 s⁻¹. The stable on ice entry in data set [8] is “at least 5 days”.

B2: wild-type PBP: E. coli phosphate binding protein (PBP), unlabelled wild-type (protein, UniProt P0AG82 26-346, looked up)
Phosphate-binding protein PstS: EASLTGAGATFPAPVYAKWADTYQKETGNKVNYQGIGSSGGVKQIIANTVDFGASDAPLSDEKLAQEGLFQFPTVIGGVVLAVNIPGLKSGELVLDGKTLGDIYLGKIKKWDDEAIAKLNPGLKLPSQNIAVVRRADGSGTSFVFTSYLAKVNEEWKNNVGTGSTVKWPIGLGGKGNDGIAAFVQRLPGAIGYVEYAYAKQNNLAYTKLISADGKPVSPTEENFANAAKGADWSKTFAQDLTNQKGEDAWPITSTTFILIHKDQKKPEQGTEVLKFFDWAYKTGAKQANDLDYASLPDSVVEQVRAAWKTNIKDSSGKPLY
For the molecule B2, the “relative affinity for Pi versus the labeled mutant (MDCC-PBP)” value in data set [9] is “two-fold tighter”.
